# Experimental data from PMC5566378 (2017).
# B1: human IL-17RC extracellular domain (receptor)
# chain: LERLVGPQDATHCSPGLSCRLWDSDILCLPGDIVPAPGPVLAPTHLQTELVLRCQKETDCDLCLRVAVHLAVHGHWEEPEDEEKFGGAADSGVEEPRNASLQAQVVLSFQAYPTARCVLLEVQVPAALVQFGQSVGSVVYDCFEAALGSEVRIWSYTQPRYEKELNHTQQLPDCRGLEVWNSIPSCWALPWLNVSADGDNVHLVLNVSEEQHFGLSLYWNQVQGPPKPRWHKNLTGPQIITLNHTDLVPCLCIQVWPLEPDSVRTNICPFREDPRAHQNLWQAARLQLLTLQSWLLDAPCSLPAEAALCWRAPGGDPCQPLVPPLSWENVTVDKVLEFPLLKGHPNLCVQVNSSEKLQLQECLWADSLGPLKDDVLLLETRGPQDNRSLCALEPSGCTSLPSKASTRAARLGEYLLQDLQSGQCLQLWDDDLGALWACPMDKYIHKR
# B2: human IL-17F homodimer (ligand)
# chain: RKIPKVGHTFFQKPESCPPVPGGSMKLDIGIINENQRVSMSRNIESRSTSPWNYTVTWDPNRYPSEVVQAQCRNLGCINAQGKEDISMNSVPIQQETLVVRRKHQGCSVSFQLEKVLVTVGCTCVTPVIHHVQ
# Key:
# [1] = target: human IL-17A/F heterodimer, Arg77 to alanine mutant (F-chain) (human, UniProt Q16552 24-155; Q96PD4 31-163, R77A); assay: SPR
# [2] = target: B1; assay: SPR
Kd [1],Kd [2],Binder
5.4 nM,–,B1
–,3.5 nM,B2
